Reference: the supplement of paper PMC9112550, “Optimization of the antimicrobial peptide Bac7 by deep mutational scanning” (BMC Biology, 2022)

Tested on: Escherichia coli TOP10
Test: shrunken log2 fold change of peptide-encoding DNA abundance (4.5 h post-induction vs induction); higher = less antimicrobial activity (less host growth inhibition)
Details: time post-induction: 4.5 h; library: site-saturation at positions 5, 18, 19, 20
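Further: peptides expressed intracellularly from a pBAD plasmid library in pooled LB shake-flask culture, induced with 0.3% L-arabinose, DNA abundance read by NGS, three biological replicates, DESeq2 with apeglm shrinkage.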

Sequence: RRIRVRPPRLPRPRPRPIKNPRP
- shrunken log2 fold change: -0.361

Sequence: RRIRQRPPRLPRPRPRPGNMPRP
- shrunken log2 fold change: -0.0822

Sequence: RRIRHRPPRLPRPRPRPPEIPRP
- shrunken log2 fold change: 0.0979

Sequence: RRIRHRPPRLPRPRPRPLYQPRP
- shrunken log2 fold change: -0.112

Sequence: RRIRFRPPRLPRPRPRPFHRPRP
- shrunken log2 fold change: -0.0134

Sequence: RRIRLRPPRLPRPRPRPPWRPRP
- shrunken log2 fold change: 0.445

Sequence: RRIRCRPPRLPRPRPRPWITPRP
- shrunken log2 fold change: -1.47

Sequence: RRIRTRPPRLPRPRPRPGKPPRP
- shrunken log2 fold change: 0.0978

Sequence: RRIRRRPPRLPRPRPRPISSPRP
- shrunken log2 fold change: 0.0497

Sequence: RRIRYRPPRLPRPRPRPPKVPRP
- shrunken log2 fold change: -0.149

Sequence: RRIRSRPPRLPRPRPRPWFNPRP
- shrunken log2 fold change: -0.227

Sequence: RRIRGRPPRLPRPRPRPYDIPRP
- shrunken log2 fold change: -0.068

Sequence: RRIRGRPPRLPRPRPRPRDHPRP
- shrunken log2 fold change: 0.978

Sequence: RRIRYRPPRLPRPRPRPCQKPRP
- shrunken log2 fold change: -0.0134

Sequence: RRIRNRPPRLPRPRPRPPKFPRP
- shrunken log2 fold change: -0.0082

Sequence: RRIRKRPPRLPRPRPRPFKFPRP
- shrunken log2 fold change: -0.0557

Sequence: RRIRLRPPRLPRPRPRPHMKPRP
- shrunken log2 fold change: -0.024

Sequence: RRIRERPPRLPRPRPRPRQGPRP
- shrunken log2 fold change: 0.235

Sequence: RRIRRRPPRLPRPRPRPNFMPRP
- shrunken log2 fold change: 0.142

Sequence: RRIRPRPPRLPRPRPRPEHKPRP
- shrunken log2 fold change: -0.00916

Sequence: RRIRWRPPRLPRPRPRPMDSPRP
- shrunken log2 fold change: -0.198

Sequence: RRIRMRPPRLPRPRPRPHEGPRP
- shrunken log2 fold change: 0.443

Sequence: RRIRSRPPRLPRPRPRPSCTPRP
- shrunken log2 fold change: -0.0382

Sequence: RRIRIRPPRLPRPRPRPCHHPRP
- shrunken log2 fold change: 0.0314

Sequence: RRIRHRPPRLPRPRPRPWRYPRP
- shrunken log2 fold change: -0.49

Sequence: RRIRVRPPRLPRPRPRPTHNPRP
- shrunken log2 fold change: 0.0759

Sequence: RRIRERPPRLPRPRPRPIFEPRP
- shrunken log2 fold change: 0.0601

Sequence: RRIRNRPPRLPRPRPRPSSHPRP
- shrunken log2 fold change: -0.0939

Sequence: RRIRFRPPRLPRPRPRPRGCPRP
- shrunken log2 fold change: 0.433

Sequence: RRIRPRPPRLPRPRPRPTIGPRP
- shrunken log2 fold change: -0.128

Sequence: RRIRARPPRLPRPRPRPRDSPRP
- shrunken log2 fold change: 0.499

Sequence: RRIRYRPPRLPRPRPRPQNVPRP
- shrunken log2 fold change: -0.389

Sequence: RRIRHRPPRLPRPRPRPALEPRP
- shrunken log2 fold change: -0.069

Sequence: RRIRLRPPRLPRPRPRPPVRPRP
- shrunken log2 fold change: 0.426

Sequence: RRIRGRPPRLPRPRPRPSSDPRP
- shrunken log2 fold change: 0.439

Sequence: RRIRYRPPRLPRPRPRPLTTPRP
- shrunken log2 fold change: -0.404

Sequence: RRIRTRPPRLPRPRPRPLEIPRP
- shrunken log2 fold change: 0.554

Sequence: RRIRERPPRLPRPRPRPIDCPRP
- shrunken log2 fold change: -0.409

Sequence: RRIRRRPPRLPRPRPRPRVTPRP
- shrunken log2 fold change: 0.766

Sequence: RRIRHRPPRLPRPRPRPNMYPRP
- shrunken log2 fold change: -0.963

Sequence: RRIRVRPPRLPRPRPRPLCTPRP
- shrunken log2 fold change: -0.0347

Sequence: RRIRIRPPRLPRPRPRPHWPPRP
- shrunken log2 fold change: 0.00237

Sequence: RRIRGRPPRLPRPRPRPQWLPRP
- shrunken log2 fold change: 0.136

Sequence: RRIRERPPRLPRPRPRPYPKPRP
- shrunken log2 fold change: -0.405

Sequence: RRIRPRPPRLPRPRPRPHINPRP
- shrunken log2 fold change: -1.16

Sequence: RRIRFRPPRLPRPRPRPVGYPRP
- shrunken log2 fold change: -0.129

Sequence: RRIRPRPPRLPRPRPRPCRTPRP
- shrunken log2 fold change: -0.194

Sequence: RRIRVRPPRLPRPRPRPKCGPRP
- shrunken log2 fold change: 0.0731

Sequence: RRIRPRPPRLPRPRPRPDDCPRP
- shrunken log2 fold change: -0.0649

Sequence: RRIRHRPPRLPRPRPRPGNPPRP
- shrunken log2 fold change: 0.0424

Sequence: RRIRLRPPRLPRPRPRPPYRPRP
- shrunken log2 fold change: -0.0286

Sequence: RRIRSRPPRLPRPRPRPYLNPRP
- shrunken log2 fold change: -0.564

Sequence: RRIRMRPPRLPRPRPRPTWPPRP
- shrunken log2 fold change: 0.837

Sequence: RRIRCRPPRLPRPRPRPLCIPRP
- shrunken log2 fold change: -0.353

Sequence: RRIRERPPRLPRPRPRPDEPPRP
- shrunken log2 fold change: -0.0946

Sequence: RRIRMRPPRLPRPRPRPLCKPRP
- shrunken log2 fold change: 0.206

Sequence: RRIRWRPPRLPRPRPRPHLCPRP
- shrunken log2 fold change: -0.147

Sequence: RRIRNRPPRLPRPRPRPPRQPRP
- shrunken log2 fold change: 0.449

Sequence: RRIRARPPRLPRPRPRPNVVPRP
- shrunken log2 fold change: -0.0083

Sequence: RRIRTRPPRLPRPRPRPKWKPRP
- shrunken log2 fold change: -0.0786

Sequence: RRIRMRPPRLPRPRPRPYWKPRP
- shrunken log2 fold change: 0.0275

Sequence: RRIRKRPPRLPRPRPRPYHHPRP
- shrunken log2 fold change: -0.247

Sequence: RRIRARPPRLPRPRPRPDHCPRP
- shrunken log2 fold change: 0.063

Sequence: RRIRIRPPRLPRPRPRPRKFPRP
- shrunken log2 fold change: -0.000367

Sequence: RRIRERPPRLPRPRPRPKKNPRP
- shrunken log2 fold change: -0.0468

Sequence: RRIRDRPPRLPRPRPRPGWLPRP
- shrunken log2 fold change: 0.127

Sequence: RRIRPRPPRLPRPRPRPHCLPRP
- shrunken log2 fold change: -0.374

Sequence: RRIRLRPPRLPRPRPRPQQAPRP
- shrunken log2 fold change: -0.0623

Sequence: RRIRNRPPRLPRPRPRPICWPRP
- shrunken log2 fold change: -0.0674

Sequence: RRIRARPPRLPRPRPRPQTQPRP
- shrunken log2 fold change: 0.628

Sequence: RRIRKRPPRLPRPRPRPFIMPRP
- shrunken log2 fold change: -0.191

Sequence: RRIRIRPPRLPRPRPRPRHFPRP
- shrunken log2 fold change: -0.00457

Sequence: RRIRRRPPRLPRPRPRPVKWPRP
- shrunken log2 fold change: 0.111

Sequence: RRIRLRPPRLPRPRPRPHFGPRP
- shrunken log2 fold change: 0.0847

Sequence: RRIRIRPPRLPRPRPRPDVEPRP
- shrunken log2 fold change: -0.054

Sequence: RRIRCRPPRLPRPRPRPIWLPRP
- shrunken log2 fold change: 0.122

Sequence: RRIRYRPPRLPRPRPRPEAYPRP
- shrunken log2 fold change: -0.185

Sequence: RRIRNRPPRLPRPRPRPERLPRP
- shrunken log2 fold change: 0.0695

Sequence: RRIRERPPRLPRPRPRPHGSPRP
- shrunken log2 fold change: -0.15

Sequence: RRIRGRPPRLPRPRPRPSIWPRP
- shrunken log2 fold change: 0.511

Sequence: RRIRDRPPRLPRPRPRPADQPRP
- shrunken log2 fold change: 0.553

Sequence: RRIRTRPPRLPRPRPRPYYPPRP
- shrunken log2 fold change: -0.335

Sequence: RRIRGRPPRLPRPRPRPFDEPRP
- shrunken log2 fold change: 0.294

Sequence: RRIRRRPPRLPRPRPRPLRAPRP
- shrunken log2 fold change: 1.17

Sequence: RRIRPRPPRLPRPRPRPPVRPRP
- shrunken log2 fold change: 0.353

Sequence: RRIRFRPPRLPRPRPRPKIDPRP
- shrunken log2 fold change: 0.00783

Sequence: RRIRIRPPRLPRPRPRPANFPRP
- shrunken log2 fold change: -0.554

Sequence: RRIRLRPPRLPRPRPRPDRDPRP
- shrunken log2 fold change: -0.154

Sequence: RRIRRRPPRLPRPRPRPHWPPRP
- shrunken log2 fold change: 0.312

Sequence: RRIRMRPPRLPRPRPRPWFGPRP
- shrunken log2 fold change: 0.134

Sequence: RRIRTRPPRLPRPRPRPITMPRP
- shrunken log2 fold change: -0.595
